From patent US20090081207A1 (published 2009)
Substitutions are numbered along the chain they refer to. Several values for one entry are separate records, joined by “and”; a condition that tells them apart may be missing. Equal values may be shown once.

B1: MOR04977 IgG4-Pro (antibody, V domains shown)
VH: QVQLVESGGGLVQPGGSLRLSCAASGFTFSSYGMSWVRQAPGKGLEWVSFIEPKWRGGATHYAASVKGRFTISRDNSKNTLYLQMNSLRAEDTAVYYCARGLGDYGHHHGLSGIFDYWGQGTLVTVSS
VL: DIQMTQSPSSLSASVGDRVTITCRASQGISSNLNWYQQKPGKAPKLLIYAASNLQSGPSRFSGSGSGTDFTLTISSLQPEDFATYYCQQYSSNPQTFGQGTKVEIKR
B2: MOR04974 IgG4-Pro (antibody, V domains shown)
VH: B1 VH with F50G, E52R, P53A, W55Q, R56S, G58Y, H61D, S65P, Q84G
VL: B1 VL with Q6G, S91A, N93P, P94R
B3: MOR04975 IgG4-Pro (antibody, V domains shown)
VH: B1 VH with F50G, E52R, P53A, W55Q, R56S, G58Y, H61D, S65P, Q84G
VL: B1 VL with R18N, S91E, S92F, N93G, P94I
B4: MOR04971 Fab (Fab, V domains shown)
VH: QVQLVESGGGLVQPGGSLRLSCAASGFTFSNYAMNWVRQAPGKGLEWVSAIHDNGHTYYPDSVKGRFTISRDNSKNTLYLQMNSLRAEDTAVYYCAREGEFGFMYSTLVFDSWGQGTLVTVSS
VL: DIELTQPPSVSVAPGQTARISCSGDSIGEQYAHWYQQKPGQAPVLVIYDDNKRPSGIPERFSGSNSGNTATLTISGTQAEDEADYYCSSYTYSSDASVFGGGTKLTVLG
B5: MOR04624 Fab (Fab, V domains shown)
VH: QVQLVESGGGLVQPGGSLRLSCAASGFTFSSYGMSWVRQAPGKGLEWVSSISYSDSNTYYADSVKGRFTISRDNSKNTLYLQMNSLRAEDTAVYYCARGLGDYGHHHGLSGIFDYWGQGTLVTVSS
VL: B1 VL with T84V, S92D, N93Q, P94S, Q95Y
notes: HuCAL GOLD monovalent Fab, kappa
B6: MOR04974 Fab (Fab, V domains shown)
VH: B1 VH with F50G, E52R, P53A, W55Q, R56S, G58Y, H61D, S65P
VL: B1 VL with S91A, N93P, P94R
B7: MOR04975 Fab (Fab, V domains shown)
VH: B1 VH with F50G, E52R, P53A, W55Q, R56S, G58Y, H61D, S65P
VL: B1 VL with S91E, S92F, N93G, P94I
notes: also called MQR04975
B8: MOR04977 Fab (Fab, V domains shown)
VH: B1 VH
VL: B1 VL
B9: MOR04985 Fab (Fab, V domains shown)
VH: B1 VH with F50G, E52R, P53A, W55Q, R56S, G58Y, H61D, S65P
VL: B1 VL with T84V, S92D, N93Q, P94S, Q95Y
B10: MOR04974 IgG1 (antibody, V domains shown)
VH: B1 VH with F50G, E52R, P53A, W55Q, R56S, G58Y, H61D, S65P
VL: B1 VL with S91A, N93P, P94R
notes: also called IgG1 MOR04974
B11: MOR04975 IgG1 (antibody, V domains shown)
VH: B1 VH with F50G, E52R, P53A, W55Q, R56S, G58Y, H61D, S65P
VL: B1 VL with S91E, S92F, N93G, P94I
B12: MOR04985 IgG1 (antibody, V domains shown)
VH: B1 VH with F50G, E52R, P53A, W55Q, R56S, G58Y, H61D, S65P
VL: B1 VL with T84V, S92D, N93Q, P94S, Q95Y
B13: MOR04977 IgG1 (antibody, V domains shown)
VH: B1 VH
VL: B1 VL
B14: MOR04624 IgG1 (antibody, V domains shown)
VH: B5 VH
VL: B1 VL with T84V, S92D, N93Q, P94S, Q95Y
notes: Human IgG1 kappa (MorphoSys HuCAL IgG Vector Kit); also called IgG1 MOR04624
B15: MOR04055 IgG (antibody, V domains shown)
VH: QVQLVESGGGLVQPGGSLRLSCAASGFTFSNYAMNWVRQAPGKGLEWVSRISYSGSDTYYADSVKGRFTISRDNSKNTLYLQMNSLRAEDTAVYYCAREGEFGFMYSTLVFDSWGQGTLVTVSS
VL: B4 VL with S88G, Y92L, S93T, S94N, D95T
B16: MOR04055 Fab (Fab, V domains shown)
VH: B15 VH
VL: B4 VL with S88G, Y92L, S93T, S94N, D95T

target: T1, human α5β1 integrin (human, UniProt P08648 42-1049; P05556 21-798); assay: cell-based or functional assay
T1 sequence (P08648 42-1049, chain 1 of 2): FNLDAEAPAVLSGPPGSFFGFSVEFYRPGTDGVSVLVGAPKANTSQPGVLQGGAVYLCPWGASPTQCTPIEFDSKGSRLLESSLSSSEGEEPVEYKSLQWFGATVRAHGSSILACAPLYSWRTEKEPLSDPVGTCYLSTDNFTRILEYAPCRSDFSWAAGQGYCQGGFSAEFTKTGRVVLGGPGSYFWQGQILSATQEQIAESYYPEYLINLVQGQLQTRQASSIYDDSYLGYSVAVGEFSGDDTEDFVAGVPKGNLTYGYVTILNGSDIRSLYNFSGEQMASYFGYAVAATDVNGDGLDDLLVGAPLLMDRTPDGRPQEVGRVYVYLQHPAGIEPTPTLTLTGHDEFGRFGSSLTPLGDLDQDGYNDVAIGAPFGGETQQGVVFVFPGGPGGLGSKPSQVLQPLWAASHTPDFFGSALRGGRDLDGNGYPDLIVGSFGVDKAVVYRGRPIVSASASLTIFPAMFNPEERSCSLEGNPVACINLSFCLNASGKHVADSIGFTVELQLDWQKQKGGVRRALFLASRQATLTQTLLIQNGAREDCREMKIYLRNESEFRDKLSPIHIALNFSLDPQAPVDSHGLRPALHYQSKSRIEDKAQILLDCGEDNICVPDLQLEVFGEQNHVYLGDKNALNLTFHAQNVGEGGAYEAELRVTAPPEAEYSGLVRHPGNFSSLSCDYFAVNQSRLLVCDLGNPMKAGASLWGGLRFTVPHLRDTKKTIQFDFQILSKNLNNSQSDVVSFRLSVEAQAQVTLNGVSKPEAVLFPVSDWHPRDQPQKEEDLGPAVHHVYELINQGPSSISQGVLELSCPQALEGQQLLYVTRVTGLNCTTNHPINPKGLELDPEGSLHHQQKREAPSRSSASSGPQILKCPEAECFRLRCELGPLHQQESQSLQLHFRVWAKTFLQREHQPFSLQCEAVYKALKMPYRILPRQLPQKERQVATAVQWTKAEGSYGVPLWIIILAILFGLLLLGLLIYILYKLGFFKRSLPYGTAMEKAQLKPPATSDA
T1 sequence (P05556 21-798, chain 2 of 2): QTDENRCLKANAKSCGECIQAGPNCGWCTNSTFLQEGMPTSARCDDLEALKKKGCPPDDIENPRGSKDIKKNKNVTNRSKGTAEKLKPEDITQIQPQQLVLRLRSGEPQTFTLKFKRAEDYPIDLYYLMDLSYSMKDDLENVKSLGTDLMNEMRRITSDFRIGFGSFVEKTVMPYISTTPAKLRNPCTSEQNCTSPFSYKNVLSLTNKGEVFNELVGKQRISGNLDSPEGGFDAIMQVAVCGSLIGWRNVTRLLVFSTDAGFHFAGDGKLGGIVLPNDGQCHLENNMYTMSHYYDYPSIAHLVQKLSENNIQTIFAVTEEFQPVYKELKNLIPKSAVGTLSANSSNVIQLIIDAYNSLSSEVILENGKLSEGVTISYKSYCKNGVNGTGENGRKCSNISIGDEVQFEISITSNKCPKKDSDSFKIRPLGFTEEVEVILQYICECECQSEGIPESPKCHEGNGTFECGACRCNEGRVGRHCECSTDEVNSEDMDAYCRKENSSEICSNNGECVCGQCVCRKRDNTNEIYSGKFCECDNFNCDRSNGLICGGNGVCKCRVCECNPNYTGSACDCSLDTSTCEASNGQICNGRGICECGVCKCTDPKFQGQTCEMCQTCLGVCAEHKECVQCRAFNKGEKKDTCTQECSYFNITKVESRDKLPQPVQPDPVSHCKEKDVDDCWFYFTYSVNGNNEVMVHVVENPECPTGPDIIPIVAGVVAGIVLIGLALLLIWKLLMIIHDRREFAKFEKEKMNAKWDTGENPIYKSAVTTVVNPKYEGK

Row | Binder | IC50, transwell migration of HUVEC towards fibronectin [µg/mL]
1 | B1 | 1
2 | B2 | 1
3 | B3 | 1.5

target: T1, human α5β1 integrin; assay: cell-based or functional assay; remark: another data set of the same source

Row | Binder | IC50, XTT-proliferation assay on HUVEC
4 | B4 | 0.21 µg/ml and 4.3 nM
5 | B5 | 11.2 µg/ml and 225 nM
6 | B6 | 0.06 µg/ml and 1.2 nM
7 | B7 | 0.09 µg/ml and 1.8 nM
8 | B8 | 0.09 µg/ml and 1.9 nM
9 | B9 | 0.09 µg/ml and 1.8 nM

target: T1, human α5β1 integrin; assay: cell-based or functional assay; remark: another data set of the same source

Row | Binder | EC50, inhibition of HUVEC adhesion to fibronectin
10 | B10 | 0.4 µg/ml and 2.7 nM
11 | B11 | 0.33 µg/ml and 2 nM
12 | B12 | 0.5 µg/ml and 3.3 nM
13 | B13 | 0.4 µg/ml and 2.6 nM

target: T2, β1-integrin chain on HT29 wt cells (α5-chain negative) (human, UniProt P05556 21-798); assay: FACS, HT29 cells (α5-chain negative)
T2 construct: whole, on cells; Negative cell control: β1 present at high density, α5 absent
T2 sequence (P05556 21-798): as the sequence (P05556 21-798, chain 2 of 2) above

Row | Binder | binding result
14 | B14 | no binding
15 | B11 | no binding
16 | B12 | no binding
17 | B13 | no binding

target: T1, human α5β1 integrin; assay: FACS titration on α5β1-positive HUVEC cells, IgG

Row | Binder | Kd [nM]
18 | B15 | 0.5
19 | B14 | 3.1

target: T1, human α5β1 integrin; assay: FACS titration on α5β1-positive HUVEC cells, monovalent Fab

Row | Binder | Kd [nM]
20 | B16 | 0.9
21 | B5 | 7.5

target: T2, β1-integrin chain on HT29 wt cells …; assay: FACS on HT29 wt cells, labelled secondary antibody
Experimental: Affinity matured IgG antibodies were incubated at 10 μg/mL with 5×10⁵ HT29 wt and HT29α5 cells. Specifically bound antibodies were detected with a Cy3-labelled secondary antibody. Upper panel: IIA1 incubated with HT29 wt (left) or HT29α5-cells (right), lower panel: IgG1 MOR04974. The fluorescence shift indicates specific binding to α5 integrin and was found for MOR04975, MOR04977, MOR04985 and MOR04624 (grey area). Antibody isotype controls are negative (black lines (b)). Our anti-integrin antibodies bind to α5-chain transfected cells with the same specificity as the reference antibody IIA1.
Affinity matured antibodies of the IgG-format were tested for their binding specificity by FACS analysis on HT29 wt vs. HT29α5 cells. HT29 wt cells are α5-negative but do contain the β1-integrin chain. HT29α5 but not the HT29 wt cells are specifically recognized by the IgG1-anti-integrin antibodies and the reference antibody IIA1 as indicated by the fluorescence shift. (FIG. 12).

Row | Binder | binding result
22 | B10 | no binding (tested: 10 µg/mL)

target: T2, β1-integrin chain on HT29 wt cells …; assay: immunoprecipitation from NP40 lysate of surface-biotinylated HT29 wt cells; streptavidin-AP blot
Experimental: Surface-biotinylated NP40-lysates of HT29α5 and HT29 wt were incubated with Fab coupled to magnetic Dyna beads. The immunoprecipitates were transferred to PVDF-membranes and analysed with streptavidin alkaline phosphatase (AP).
IIA1 was used as a reference antibody. After intensive washing the precipitates were boiled in SDS-PAGE sample buffer under reducing conditions, blotted to PVDF-membranes and probed with streptavidine-AP. All anti-α5β1 integrin antibodies specifically precipitated a protein double kband of […] which corresponds to the expected molecular weight of the integrin chains α5 and β1 (FIG. 11) and was not found in the HT29 wt cell lysate. The same double band was found with IIA1.

Row | Binder | binding result
23 | B4 | no binding
24 | B6 | no binding
25 | B7 | no binding
26 | B8 | no binding
27 | B9 | no binding
